# Experimental data taken from patent publication US6835378B2, “Method and compositions for inhibiting thrombin-induced coagulation” (The Texas A&M University System University, priority 2001, dated 2004).
# T1: Fg Bβ chain (Homo sapiens, UniProt P02675)
# T1 construct: recognized the mature recombinant Bβ chain (residues 1-462); made in house; host or cells: E. coli
# T1 sequence (P02675 31-491): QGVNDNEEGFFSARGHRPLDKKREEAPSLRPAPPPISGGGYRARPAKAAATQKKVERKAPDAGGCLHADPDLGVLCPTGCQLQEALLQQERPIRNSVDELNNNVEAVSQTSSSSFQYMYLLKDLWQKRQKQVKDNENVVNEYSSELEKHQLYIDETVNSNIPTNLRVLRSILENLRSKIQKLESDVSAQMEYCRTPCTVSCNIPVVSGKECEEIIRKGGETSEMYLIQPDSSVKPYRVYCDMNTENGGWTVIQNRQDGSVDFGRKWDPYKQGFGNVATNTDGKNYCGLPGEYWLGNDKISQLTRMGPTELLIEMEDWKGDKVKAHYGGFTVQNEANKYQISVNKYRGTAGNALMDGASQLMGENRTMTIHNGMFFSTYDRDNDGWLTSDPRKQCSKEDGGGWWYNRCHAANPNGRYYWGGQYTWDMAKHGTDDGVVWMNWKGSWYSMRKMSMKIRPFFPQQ
# B1: rSdrG(50-597): recombinant His-tagged A region (residues 50-597) of SdrG, a fibrinogen-binding MSCRAMM from S. epidermidis (protein)
# chain: HHHHHHAEENTVQDVKDSNMDDELSDSNDQSSNEEKNDVINNSQSINTDDDNQIKKEETNSNDAIENRSKDITQSTTNVDENEATFLQKTPQDNTQLKEEVVKEPSSVESSNSSMDTAQQPSHTTINSEASIQTSDNEENSRVSDFANSKIIESNTESNKEENTIEQPNKVREDSITSQPSSYKNIDEKISNQDELLNLPINEYENKVRPLSTTSAQPSSKRVTVNQLAAEQGSNVNHLIKVTDQSITEGYDDSDGIIKAHDAENLIYDVTFEVDDKVKSGDTMTVNIDKNTVPSDLTDSFAIPKIKDNSGEIIATGTYDNTNKQITYTFTDYVDKYENIKAHLKLTSYIDKSKVPNNNTKLDVEYKTALSSVNKTITVEYQKPNENRTANLQSMFTNIDTKNHTVEQTIYINPLRYSAKETNVNISGNGDEGSTIIDDSTIIKVYKVGDNQNLPDSNRIYDYSEYEDVTNDDYAQLGNNNDVNINFGNIDSPYIIKVISKYDPNKDDYTTIQQTVTMQTTINEYTGEFRTASYDNTIAFSTSSGQGQGDLPPE
# How the values were obtained:
# [1] = target: Fg Bβ chain peptide β1-25 (Homo sapiens, UniProt P02675); conditions: read-out: KD for interaction with peptide β1-25; 10 nM fluorescein-labeled β1-25, 3 h, room temperature
# Method: Fluorescence Polarization—Fluorescence polarization was used to determine the equilibrium dissociation constant (KD) for the interaction of rSdrG(50-597) with peptide β1-25. The peptide was labeled with fluorescein as previously described (18). Increasing concentrations of rSdrG(50-597) in PBS, pH 7.5, were incubated with 10 nM labeled peptide for 3 h in the dark at room temperature. Reactions were allowed to reach equilibrium. Polarization measurements were taken with a Luminescence Spectrometer LS50B (Perkin Elmer) using FL WinLab software (Perkin Elmer). Binding data was analyzed by nonlinear regression used to fit a binding function as defined by the following equation: [formula]
# Fg Bβ chain = target: T1, Fg Bβ chain; assay: Western ligand blot with biotin labeled rSdrG(50-597); assay type: binding
# Text: Construction of Fg Bβ Chain Truncates—An E. coli strain harboring plasmid p668 which contains the cDNA for the Fg Bβ chain was kindly provided by Dr. Susan T. Lord (University of North Carolina, Chapel Hill, N.C.). The 1525 bp fragment from p668 was subcloned into the plasmid pQE30 to produce recombinant mature Bβ chain with a N-terminal His-tag. Additional Bβ chain constructs (FIG. 3A) were made by subcloning into either pQE30 or pGEX-KG (Pharmacia) to produce recombinant proteins with a N-terminal His-tag or Glutathione S-transferase (GST) fusion.
# Western Ligand Blot Analysis—Whole E. coli lysates harboring each respective Fg Bβ chain construct were fractionated by SDS-PAGE and the separated proteins were transferred to nitrocellulose membrane with a semi-dry transfer cell (Bio-Rad). The membrane was incubated overnight with 5% (w/v) non-fat dry milk in PBS, pH 7.5 at 4° C. to saturate non-specific binding sites. After blocking, the membrane was washed three times with PBST and then incubated with biotin labeled rSdrG(50-597) (0.5 μM) for 1 h at room temperature. rSdrG(50-597) was biotin labeled using EZ Link-sulfo-NHS-LC biotin (Sigma) according to the manufacturers' instructions. After three more washes with PBST, the blot was incubated with a 1:5000 dilution of streptavidin-AP conjugated for 1 h at room temperature and developed with 5-bromo-4-chloro-3-indolyl phosphate (BCIP) and nitro blue tetrazolium (NBT) (Biorad) in carbonate:bicarbonate buffer (14 mM Na2CO3, 36 mM NaHCO3, 5 mM MgCl2:6H2O, pH 9.8) for ˜15 min at room temperature.
# [2] = tested on: thrombin-induced fibrin clot formation; assay: Fg coagulation assay (fibrin clot inhibition); assay type: biochemical; conditions: 3.0 μM Fg, 0-6.0 μM protein, 1.0 NIH unit/ml thrombin, OD 405 nm
# Method: Fg Coagulation Assay—150 μl of a 3.0 μM Fg solution was incubated with 10 μl of rSdrG(50-597) or BSA (1.0-6.0 μM) and 50 μl of thrombin (Sigma) (1.0 NIH unit/ml) in microtiter wells at room temperature. Clot formation was monitored by measuring the increase in optical density (OD) at 405 nm over time and expressed as Vmax (mOD/min). A plate reader (Thermomax microplate reader, SOFTmax software, Molecular Devices) was used to monitor OD. Using the kinetic mode with one wavelength (L1=405 nm), samples were read every 10 sec for 5 min. In this assay, 1.0 NIH unit/ml of thrombin incubated with 3.0 μM Fg produced a fibrin clot in 5 min at room temperature.
# rSdrG(50-597) Inhibits Thrombin-Induced Fibrin Clot Formation—In the final stages of the blood coagulation cascade, thrombin cleaves Fg releasing the fibrinopeptides and producing fibrin monomers. These fibrin monomers then polymerize to form a fibrin clot (20). […] To test this hypothesis, we designed a fibrin clot inhibition assay in which 3.0 μM Fg, 0-6.0 μM rSdrG(50-597) and 1.0 NIH unit/ml of thrombin were incubated and the formation of a fibrin clot was monitored by measuring the increase in optical density at 405 nm.
molecule,measurement,setting,value
B1,Kd,[1],140 nM
same,"binding to truncates lacking the N-terminal 25 residues, rβ(25-95) and rβ(25-195)",Fg Bβ chain; 0.5 μM biotin labeled protein,failed to bind
same,"recognition of recombinant Bβ chain (1-462) and truncates 1-341, 1-220, 1-195, 1-95",Fg Bβ chain; 0.5 μM biotin labeled protein,recognized
same,recognition of Fg chains,"Fg Bβ chain; native Fg chains, data not shown","recognized the Bβ chain, but not the Aα or γ chains of Fg"
same,fibrin clot formation,[2],inhibited fibrin clot formation in a concentration dependent manner
same,fibrin clot formation,[2]; listed as SdrG,inhibit thrombin-induced fibrinogen coagulation
